Data from publication PMC7364481, “Identification and validation of the phosphorylation sites on Aristaless-related homeobox protein”.

Legend:
Assay in all cases: EMSA; 5 ug protein per lane; LightShift chemiluminescent EMSA kit, 6% polyacrylamide gel, 5 ug protein per lane; binding buffer, salt, pH and temperature not stated (protein eluted in 50 mM Tris-Cl pH 8.0, 30 mM glutathione)
Details in all cases: protein: recombinant; tags: N-terminal GST (pGEX-4T-2); label: biotin; blunt
[1] = biological target: GST-ARX(220-392) S266A (UniProt O35085 220-392, S266A)
GST-ARX(220-392) S266A, sequence (O35085 220-392 S266A): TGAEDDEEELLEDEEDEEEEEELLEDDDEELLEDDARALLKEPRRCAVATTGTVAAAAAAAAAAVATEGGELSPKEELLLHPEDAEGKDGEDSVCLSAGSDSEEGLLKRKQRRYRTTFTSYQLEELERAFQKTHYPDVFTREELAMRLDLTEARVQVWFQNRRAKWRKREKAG

[2] = biological target: GST-ARX(220-392) WT (UniProt O35085 220-392)
GST-ARX(220-392) WT, sequence (O35085 220-392): as the sequence (O35085 220-392 S266A) above, with A47S counted along it

[3] = biological target: GST-ARX(220-392) S266E (UniProt O35085 220-392, S266E)
GST-ARX(220-392) S266E, sequence (O35085 220-392 S266E): as the sequence (O35085 220-392 S266A) above, with A47E counted along it

Measured: binding result

B1: SIX1 probe (dsDNA)
DNA 1: TCTTAACATTAAGGTAATTAAATATGAGCTCAC
DNA 2: GTGAGCTCATATTTAATTACCTTAATGTTAAGA
binds: [1] | [2] | [3]
